Assay results from the DeepSol protein solubility set.

Assay: soluble on expression in E. coli; label from the status in PepcDB or PDB records

| Sequence | soluble on expression in E. coli |
| --- | --- |
| MGSSHHHHHHSSGLVPRGSHMRGVIRKLNDDGFGVLKGILVPFSAPGDEIIVERVERVKKRRVASQWKLVRSSPLRVGPRCKAFGKCGGCTLQHLNYDYQLEFKRKKLKRILGFEVEVVPSPKIFGHRNRIDLAITKDGIGFRERGKWWKIVDIDECPVFGKTSREAIERLKEFIEEEKISVWNIKKDEGFLRYMVLREGKFTEEVMVNFVTKEGNLPDPTNYFDFDSIYWSVNRSKSDVSYGDIERFWGKEFIRERLDDVDYLIHPNSFFQTNSYQAVNLVRKVSELVEGEKILDMYSGVGTFGIYLAKRGFNVKGFDSNEFAIEMARRNVEINNVDAEFEVASDREVSVKGFDTVIVDPPRAGLHPRLVKRLNREKPGVIVYVSCNPETFARDVKMLDYRIDEIVALDMFPHTPHVELVAKLV | soluble |
| MTDKVIATHNGNFHADDVFSIAALKNIFPSFKLIRTRDLEVIGKADIVIDVGGEYDADAGRFDHHQRGGAGERENGIPYSSFGLIWQKYGLAICQGNQEVANSVDAGLVSTIDAIDCGHVEGVAQGISLSQTISMFNPTWQEDSHFDTCFDEAVDFASRVLTRFIASASGGINAKDIVAKAIDNAEDSRVIVLEKYTPWKRTVHALSEEALYMVYPSPSGQWRIQTVPVEPGSFEDRKPLPKQWAGLSDDALKEVTGIDDAMFCHNGLFIAGAESFESTMKMASIALQALEHHHHHH | soluble |
| MSLLANLPPLVTVFGGSGFVGRHVVRMLAKRGYRIRVAVRRPDLAGFLQPLGNVGQISFAQANLRYRDSIIKAVEDADHVVNCVGILAESGRNTFDAVQEFGAKAIAEAARDTGATLTHISAIGADANSQTGYGRTKGRAEAAIHSVLPGAVILRPSIIFGPEDDFFNKFAKMARNLPFLPLIGGGKTKFQPVYVEDVAEAVARSVDGKLKPGAIYELGGPDVMTFRDCLEAVLAATYRERSFVNLPFGVASMIGKLASLVPLITPPLTPDQVTMLKKDNVVSAEAEKKGLTLEGIGITPVRVASVLPSYMVQYRQHGQFSNAGKAAEGHHHHHH | soluble |
| MSAPKRPKFSVGDIVVNTLYGTVGTITDIQQIDGTFLYEINHGHSLFAEQALILLSEFAGDLWIAEEIEIELPFFLGEIVRVRDYGGHLFKIVGVRTEIYRYYGEGWEETIYELKRLTDGWEIEVHLEDIIPLADGEETSVTLVQDIVIAAPVKASLLLPPADSGEKGPSVDELLDMYNDYKALYEWFGDEQYQRMMETVVKRLRTISDHQDRN | not soluble |
| MIDLLQADGNALPSAVKLAYSPASKTFESYRVMTQVHTNDATKKVIVKLADTPQLTDVLNSTVQMPISVSWGGQVLSTTAKEFEAAALGYSASGVNGVSSSQELVISAAPKTAGTAPTAGNYSGVVSLVMTLGSDNKQVEKNITVTASVDPVIDLLQADGNALPSAVKLAYSPASKTFESYRVMTQVHTNDATKKVIVKLADTPQLTDVLNSTVQMPISVSWGGQVLSTTAKEFEAAALGYSASGVNGVSSSQELVISAAPKTAGTAPTAGNYSGVVSLVMTLGSDNKQVEKNITVTASVDPVIDLLQADGNALPSAVKLAYSPASKTFESYRVMTQVHTNDATKKVIVKLADTPQLTDVLNSTVQMPISVSWGGQVLSTTAKEFEAAALGYSASGVNGVSSSQELVISAAPKTAGTAPTAGNYSGVVSLVMTLGSDNKQVEKNITVTASVDPVILEHHHHHH | soluble |
| MGSDKIHHHHHHMFWFKNVMIYRLTNALQLASNELEPLLQQHRFIGCSQSEMSKFGWTAPLAKTEQLHFCHTKQFLLISHKEDKLLPANVIKAETEERIALLEEKENRKLKKTEKQAIKDDVIAMLLPRAFSKHQFTAIWLDLDAQLVYVDAASSKRAEASLALLRKTLGSLPVVPLSFVQLPAEVMTNWLAKGHTPNWLTLLEEAELKSFETESVIRCKKQELESDEICYHLQAGKLVTKLAIEWENHFSCVLNNDATLTRLKFAGEIIEKNDDILKEDIAQRLDADFLLMTEELRLFTQKLIEEFGGIKE | not soluble |
| MSLGTGSLGLTFHNFSFGDLFNPSAYHPLPHGDGQTLALQWQFGSNHYRTLSLSASDPWAFGTHTSLGFTAFKTKQTYDLTSSNLSTKTINQYGADITIGRRLTWPDDYFAISWRLGYLHTKGGFVSFLNETNAPEEAEEFSITQTISRNSIDNPIYPRHGSKNVFTAQLAGGVLPGTINFYKLIGKTSWFFPVSHNLVVNVAAQQGYLNTFSKDDYIPYTDYFYMGGSGMSSLPTIPLRGYPDHSLGQQFEGETDLYGGRVYSKFTTEVRYPLTLSSSASIYALAFAEAGNLWASASDFNLTDLKKSAGIGLRLYLPIIGQIGIDYGYGFDSVPSEPGKKPQGWNFTFSFGQPNEGHHHHHH | not soluble |
| MANSHVNTLNPGDPFRDWLVEEVVANRIRDKKCCVNVFKYNSSHTVCRYQFKGEHFSVMAKFFAEPTGKLKAYNPYKGMMNEYRNLKKAASIINVAKPLAVRKDFNCVLVTEHIPGKSLGWYLKREEDLYGRLSAVAHMLRNLHDNTKSSYNKENEFRNFHDVLDHLKLDYGTRETFNKLLGEWWYSSLLDRDHGCMVHRDVTPSNYIFCKEKPYAIDFESSWFEAHPIRDLGVLTAELKNEFELHKGGGWKAEPYIGNFLWEYSRGEKDFYSITGILPFFMSIGLLRSARLHQGDYRNYLINEARECLGAIYRGNLEHHHHHH | not soluble |
| MEVPKNPYESTWTGYDFYYEKEPKKVPPSAGSGKMPAFQSIASISTDRESPEDPGNSGYLASGAESGPKKTTSKPATTPTPEPTTTPVEEEKVKVSPSSSTKDPSKLHKTTKTPVTITNIISTTTAPPAPSRAPENDPESGSDQSESTDNLDLLYGGGSSATATGEDKKARHSTTNNPNFCTDPPKLHDPPPPHPSAPQNLLTQLIQKKKDAPNKGSSEKSSKWSDDHASGYPEGSAPSAEPSENQYEQDGSIPSSNDYKELTDVPGTKPSSSASRGSNMAGNPTAPLTTTQHTFAPNSTETSRSSTSRGKAPGTEPKSEARYSSQNPYSDNSSTQKPEYESGYPAVSGANSRAQIPNITDYTKPSAVSIEYASSSKERSDPPFSTPLTSNSQHVLTQPRPRDYEDGPQETTRTKASGTKSPNSLQAPQQTAAHLMKNARAPGPEPSLHSTTTHHVQTPIITIAPKFSEPSPYAENIMLTPKQAPGTEPRSNSQNPQTDRLASQSGYESGGPGRPQNVSIRHRENPKGSDAISRTAITPSKIDYFAPSSPTGPIGYERQVPSFKEGPDHQYTKYSTLNSPPAPSPQESSTITHHVSTSPDFLEPSSESSVLLPKQAPGTNPSTSNSPPGYSELIGPSGPESQGYEPMGNNGPSIFEGPGTESGYSEPKALSTASQKTKPDDKPYEIPRSIEPSNSKPYPSDSSWSDHDNAPGSEPSYIPDVLDYGARANNHAGKMMNMSHATSPSTGSPSNSNNAISARDPYDHFGTITAPSDIPRANSNFEEYPDDGGYDGTNDVAIVPLRTQHGTNPSTITTTNTQVRAQISEIDRIAESFENSAREPVEYEQRITSESSKGITAVTGKDFMKKLGRKSPTCCSCCDEKQSVSRNIETQADPLHVQHAVDPSRQLVESEPVQNFVPLQNTVGGNAYIQPQPVAQQQTIYQQPFQQYQPQYPQSYQQPSCGCQPQPQNCCAPPAPCCLPTIPCCPPIPCCPQPKICCQPAPVCLPPPTCCSINFKLPTIPICGRACPSCPCRRRMHKSRRLKRHSINSNCHQCSSAGEPWRSVLHHREKRAAPGCTSGFSTMSQNSCGTCGASNLRSPRVKRMGCLPCLGRKKRDTDENSHIRVKRMGCLPCLGRKKRSTLSQSGCSQCNSMGHLFNRYKRSLFGGCSPCAPQQPCGCGRKKRSVTMKLVKRAPMQCDSTCCDFSRCPYRQKKEALVPFM | not soluble |
| EKATENSPLVMIEYSSPNTNKPLHLGHVRNNLLGNALANVMAANGNKVVKTNIVNDRGIHICKSMLAWLKYGNGETPESSGKKGDHLIGDYYVAFDKHYKAEVKELTAQYQAEGLNEEEAKAKAEANSPLMLEAREMLRKWEANDPEIRALWKKMNDWVYAGFDETYKMMGVSFDKIYYESNTYLEGKEKVMEGLEKGFFYRKEDNSVWADLTAEGLDHKLLLRGDGTSVYMTQDIGTAKLRFQDYPINKMIYVVGNEQNYHFQVLSILLDKLGFEWGKGLVHFSYGMVELPEGKMKSREGTVVDADDLMEAMIETAKETSAELGKLDGLTQEEADNIARIVGLGALKYFILKVDARKNMTFNPKESIDFN | not soluble |
